Data published in paper PMC3036652, “Functional Analysis of an Acid Adaptive DNA Adenine Methyltransferase from Helicobacter pylori 26695” (PLoS ONE, 2011).

Key:
HP0593 MTase = molecular target: T1, HP0593 MTase (Helicobacter pylori, UniProt O25315); experiment: EMSA of enzyme with […]-labelled duplex […] DNA; assay type: binding; conditions: on ice, no divalent metal, ternary complex with cognate DNA, indirect read-out
T1 construct: gene HP_0593; full-length, 1797 bp gene in pET14b (NdeI/BamHI), N-terminal His6 tag kept, E. coli BL21(DE3) pLysS; monomer and dimer in solution, functions as dimer
T1 sequence (O25315 1-598): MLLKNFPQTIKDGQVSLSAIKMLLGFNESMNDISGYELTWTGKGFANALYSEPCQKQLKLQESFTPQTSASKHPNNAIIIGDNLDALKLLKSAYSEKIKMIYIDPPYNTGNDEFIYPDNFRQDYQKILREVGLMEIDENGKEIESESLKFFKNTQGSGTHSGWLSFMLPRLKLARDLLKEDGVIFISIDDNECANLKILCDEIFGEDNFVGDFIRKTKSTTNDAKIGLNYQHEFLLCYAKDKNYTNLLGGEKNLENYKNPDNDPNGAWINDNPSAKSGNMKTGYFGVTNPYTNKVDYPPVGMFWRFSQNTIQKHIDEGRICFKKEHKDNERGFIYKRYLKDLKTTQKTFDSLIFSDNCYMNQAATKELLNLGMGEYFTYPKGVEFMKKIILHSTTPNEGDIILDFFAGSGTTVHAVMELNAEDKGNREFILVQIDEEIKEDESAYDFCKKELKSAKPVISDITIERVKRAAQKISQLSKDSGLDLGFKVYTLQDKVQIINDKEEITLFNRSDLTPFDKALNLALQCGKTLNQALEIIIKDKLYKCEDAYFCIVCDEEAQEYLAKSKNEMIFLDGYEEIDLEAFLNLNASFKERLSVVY

[1] = molecular target: HP0593 DNA-(N6-adenine)-methyltransferase (Helicobacter pylori 26695); experiment: SEC
[2] = molecular target: HP0593 DNA-(N6-adenine)-methyltransferase (Helicobacter pylori 26695); experiment: cross-linking
[3] = molecular target: HP0593 DNA-(N6-adenine)-methyltransferase (Helicobacter pylori 26695); experiment: SEC; reinjection of the dimer peak of the gel filtration; data not shown
[4] = molecular target: HP0593 DNA-(N6-adenine)-methyltransferase (Helicobacter pylori 26695); experiment: cross-linking; 0.06% and 0.08% glutaraldehyde-treated HP0593 MTase, products analysed by MALDI-MS; data not shown
[5] = molecular target: T2, HP0593 DNA-(N6-adenine)-methyltransferase (HP0593 MTase) (Helicobacter pylori 26695, UniProt O25315 1-598); experiment: EMSA; no cofactor; up to 3.0 µM protein; EMSA: 10 mM potassium phosphate pH 5.5, 7 mM β-mercaptoethanol, 10% glycerol, no divalent metal, 10 min on ice, 0.5-5.0 µM protein, ~100 nM DNA, gel 0.5x TBE 4°C; SPR: 10 mM HEPES pH 7.4, 100 mM NaCl, 0.05% P-20, ±1.0 mM MnCl2, 25°C, 1:1 Langmuir global fit; conditions: protein: recombinant; tags: N-terminal His6 (pET14b); label: 32P; blunt
T2 sequence: T1 sequence (O25315 1-598)

[6] = molecular target: T2, HP0593 …; experiment: SPR; 1.0 mM MnCl2; EMSA: 10 mM potassium phosphate pH 5.5, 7 mM β-mercaptoethanol, 10% glycerol, no divalent metal, 10 min on ice, 0.5-5.0 µM protein, ~100 nM DNA, gel 0.5x TBE 4°C; SPR: 10 mM HEPES pH 7.4, 100 mM NaCl, 0.05% P-20, ±1.0 mM MnCl2, 25°C, 1:1 Langmuir global fit; conditions: protein: recombinant; tags: N-terminal His6 (pET14b); label: 5' biotin on top strand, immobilized on SA chip; blunt

In the case of `Nc1ncnc2c1ncn2[C@@H]1O[C@H](CSCC[C@H](N)C(=O)O)[C@@H](O)[C@H]1O` [AdoHcy], the “EMSA of enzyme with 32P-labelled duplex 2 DNA” value (HP0593 MTase; 5 µM AdoHcy, 10 mM potassium phosphate pH 5.5) is reported as “This suggested the formation of a stable ternary complex in the presence of AdoHcy”.

With `Nc1ncnc2c1ncn2[C@@H]1O[C@H](C[C@@H](N)CC[C@H](N)C(=O)O)[C@@H](O)[C@H]1O` [sinefungin] the “EMSA of enzyme with 32P-labelled duplex 2 DNA” value (HP0593 MTase; 10 µM sinefungin, pH 5.5) was “which is stabilized by AdoHcy and in some extent by sinefungin”.

With “HP0593 DNA-(N6-adenine)-methyltransferase (enzyme)” the stoichiometry N [1] was 2, the stoichiometry N [2] was 2 and the stoichiometry N [3] was 2. The stoichiometry N [4] was 2.

B1: duplex 19 (lacks GCAG) (dsDNA)
DNA 1: GATCAATAGATCCCCGGATCATTTACATT
DNA 2: AATGTAAATGATCCGGGGATCTATTGATC
B1: no binding [5].

B2: duplex 18 (dsDNA)
DNA 1: GATCAATAGATGCGCAGATCATTTACATT
DNA 2: AATGTAAATGATCTGCGCATCTATTGATC
For B2, the Kd [6] was 4.58 nM.
